Results on one molecule are retold here after patent US20240181074A1, “PEGYLATED T CELL ENGAGER WITH DUAL SPECIFICITIES TO CD3 AND CD19” (Shenzhen Enduring Biotech, Ltd., priority 2021, published 2024).

The test system of one assay is EAE model mice. In words: EAE model, head-to-head comparison of JY108 to MEDI-551 (Example 9). It counts as in vivo. The procedure: MEDI-551 (Inebilizumab) is an anti-CD19 monoclonal antibody currently under clinical trial for treating MS. […] For head-to-head comparison, EAE model in this experiment were constructed in the same way as described in Example 8 and MEDI-551 treated group (a single i.v. injection of 250 μg/animal) was included in the experiment. On Day 12 after generation of the EAE model, the male animals were randomly grouped into 4 groups (n=7): MEDI-551 treated group, model group (control), two groups treated with JY108 at 60 μg/animal and at 80 μg/animal with 5 doses in total (Day 14, Day 15, Day 17, Day 19 and Day 21). The clinical scores were recorded for each animal on daily basis (except Day 18). Female mice were grouped similarly (n=7) after day 11 of EAE induction and treated with JY108 (30, 50, 75 μg/animal) and MEDI551 (250 μg/animal).

Another assay has as its system CD19^+ B cells. In words: Spleen B cells in the EAE experiment (flow cytometry). It counts as in vivo, mice. The note with it: day 15, MEDI-551 treated group. From the text: To better illustrate the mechanism of JY108 in ameliorating EAE symptoms, the spleen B cells in the EAE experiment were examined on day 15, using the same method described in Example 9.
(In general: In flow cytometry, cells or beads pass a laser one at a time.)

The next assay has as its system Breg cells. As to the kind of experiment: Breg cells in spleen of EAE animals (PE-anti-CD19 / FITC-B10 flow cytometry). It counts as in vivo, mice. From the text:
The seemed contradictory results prompted us to see what happened to other related immune cells after JY108 treatment. Using the method described in Example 5, the spleen cells derived from the animals in the EAE experiment were double stained with PE-anti-CD19 and FITC-B10 (a marker for Breg) and counted via flowcytometry.

Another assay deals with MOG specific B cells. As to the kind of experiment: ELISPOT of residual MOG specific B cells in spinal cord. In kind it is in vivo, mice. As to the method:
Since MOG specific B cells are the major source of autoantibodies for CNS myelination damage, ELISPOT was performed by following the protocol provided by the vendor's manual to compare the residual MOG specific B cells in the spinal cord of the tested animals.

Another assay has as its system EAE model. The settings on record: cited from earlier work.

B1: MEDI-551: anti-CD19 monoclonal antibody currently under clinical trial for treating MS (antibody, chains of the INN, looked up, V domains shown)
VH: EVQLVESGGGLVQPGGSLRLSCAASGFTFSSSWMNWVRQAPGKGLEWVGRIYPGDGDTNYNVKFKGRFTISRDDSKNSLYLQMNSLKTEDTAVYYCARSGFITTVRDFDYWGQGTLVTVSS
VL: EIVLTQSPDFQSVTPKEKVTITCRASESVDTFGISFMNWFQQKPDQSPKLLIHEASNQGSGVPSRFSGSGSGTDFTLTINSLEAEDAATYYCQQSKEVPFTFGGGTKVEIK
For the molecule B1, the “EAE symptoms (clinical score)” value with EAE model mice (female mice, 250 μg/animal) is “not effective”; in the assay on EAE model mice (male mice, single i.v. 250 μg/animal on day 14) it was “did not show any therapeutic effect”. In addition, the “CD19^+ B cells in spleen” value in the assay with CD19^+ B cells is on record as “almost completely eliminated”. Besides, in the assay with Breg cells, the “effect on Breg cells” value was “little effect”. The “MOG specific B cells in the spinal cord” value in the assay with MOG specific B cells was “depleted MOG specific B cells effectively”. For the same molecule, the “EAE symptoms of male mice” value in the assay on EAE model (administered on day 7 after EAE induction (Chen 2014)) is on record as “able to delay the EAE symptoms”. For the same molecule, the “efficacy in EAE model versus anti-CD20 antibody” value in the assay with EAE model (pre-clinical results) is “more effective than marketed monoclonal anti-CD20 antibody”.
